{
  "source": "paper PMC3540032",
  "about": "“Comprehensive Analysis and Identification of the Human STIM1 Domains for Structural and Functional Studies” (PLoS ONE, 2013)",
  "binders": {"B1": {"name": "Orai1 C-terminal peptide with an extra N-terminal Cys (peptide)", "peptide": "CRSLVSHKTDRQFQELNELAEFARLQDQLDHRGDHPLTPGSHYA", "notes": "extra Cys added to the N-terminus for immobilisation via thiol coupling; The added Cys is coupled to the CM5 chip by thiol coupling, which leaves the C-terminal end free; also called Orai1 C-terminus; Orai1 C-terminal domain; source: synthetic peptide (Peptide 2.0), purified by SEC (Superdex Peptide)"}},
  "molecular_target": "T1, hSTIM1 S340-M490 (CAD-containing construct) (human, UniProt Q13586 340-490)",
  "T1 construct": "also called the CAD; source: E. coli Rosetta (DE3), purified (IMAC, SEC, IEX, low salt SEC)",
  "T1 sequence (Q13586 340-490)": "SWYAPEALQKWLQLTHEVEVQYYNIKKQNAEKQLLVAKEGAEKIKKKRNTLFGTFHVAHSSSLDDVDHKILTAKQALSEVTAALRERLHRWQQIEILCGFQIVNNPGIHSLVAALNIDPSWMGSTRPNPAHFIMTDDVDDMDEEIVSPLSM",
  "assay": "SPR; Biacore T200; Orai1 peptide immobilised on a CM5 chip by ligand thiol coupling at 1000 RU; analytes injected at 10 µM; HBS-EP buffer (20 mM HEPES, pH 7.4, 150 mM NaCl, 3.4 mM EDTA, 0.005% Polysorbate 20), 30 µL/min",
  "details": "both partners purified",
  "data": [
    {"binder": "B1", "values": [
      {"measurement": "binding result", "value": "binds"}
    ]}
  ]
}
